Experiments:
[1] = Accelerated stability study, 2 weeks at 37° C., SDS-PAGE and Reversed Phase HPLC (RPC)
Procedure: The stability was measured by the appearance of new variants after the stability testing by SDS-PAGE and Reversed Phase HPLC (RPC). In both analyses the initial sample and the one subjected to the stability study were run in parallel. For the SDS-PAGE, 7.5 μg protein was loaded into each well.
The purified proteins were formulated in 25 mM NaP/125 mM NaCl pH 7.0 and subjected to an accelerated stability study for 2 weeks at 37° C. The stability was measured by the appearance of new variants after the stability testing by SDS-PAGE and Reversed Phase HPLC (RPC). In both analyses the initial sample and the one subjected to the stability study were run in parallel. For the SDS-PAGE, 7.5 μg protein was loaded into each well.

[2] = 3 month stability test at 37° C., RPC; type: physicochemical
Excerpt: The 2 weeks data from example 2 is included in Table VIII below to make the interpretation easier.

[3] = after 2 weeks at 37° C., 25 mM NaP/125 mM NaCl pH 7.0

B1: PSI0383: C5 binding compound with N52S, D53E, D60E and loop [L2] substitutions D36R, D37Q, S39E (protein)
chain: AEAKYAKEVLEAWDEIDRLPNLTIEQWLAFINKLDRQPEQSSELLSEAKKLSESQAPKVEGSLAEAKEAANAELDSYGVSDFYKRLIDKAKTVEGVEALKDAILAALP
modifications: Modified bacterial sequence
- stability when compared with PSI0242 ([1]; 2 weeks at 37° C., conclusion in words): increased stability
- Main peak (% of total protein) ([1]; RPC after 2 weeks at 37° C., 25 mM NaP/125 mM NaCl pH 7.0): 91 % of total protein
- 2 weeks, 37° C. Main peak (% of total protein) ([1]; RPC, 2 weeks, 37° C., data from example 2): 91 % of total protein
- RPC post peaks [1, 3]: 0
- RPC prepeaks [1, 3]: 0
- SDS-PAGE bands [1, 3]: 1
- 3 months, 37° C. Main peak (% of total protein) ([2]; RPC, 3 months, 37° C.): 59 % of total protein
- proportion of protein in the original form after 3 months at 37° C. versus PSI0242 after 2 weeks ([2]; result in words): higher proportion of protein in the original form

— patent publication US9994626B2, “Stable polypeptides binding to human complement C5” (Swedish Orphan Biovitrum AB (publ), priority 2013, dated 2018)
